From patent publication US12295987B2, “Method of using a GIP/GLP1 co-agonist for diabetes” (Eli Lilly and Company, priority 2018, dated 2025)

Molecular target: T1, human gastric inhibitory peptide receptor (hGIPR) (Homo sapiens, UniProt P48546)
T1 construct: expressed in transfected cells; host or cells: HEK293
T1 sequence (P48546 22-466): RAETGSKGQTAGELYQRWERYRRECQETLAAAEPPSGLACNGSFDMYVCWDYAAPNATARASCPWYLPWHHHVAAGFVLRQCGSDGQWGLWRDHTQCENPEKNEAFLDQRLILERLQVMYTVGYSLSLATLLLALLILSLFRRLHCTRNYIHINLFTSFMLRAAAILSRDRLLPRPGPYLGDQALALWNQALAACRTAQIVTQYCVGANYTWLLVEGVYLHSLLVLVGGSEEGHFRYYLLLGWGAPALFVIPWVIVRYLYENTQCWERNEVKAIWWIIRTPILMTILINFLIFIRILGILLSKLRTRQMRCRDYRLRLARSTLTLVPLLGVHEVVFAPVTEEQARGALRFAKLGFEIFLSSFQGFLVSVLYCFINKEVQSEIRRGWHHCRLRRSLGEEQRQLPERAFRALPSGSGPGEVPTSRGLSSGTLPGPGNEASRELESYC
Test: cAMP pharmacological functional assay in presence of 0.1% casein, hGIPR
Type: cell-based
Conditions: ratio of hGIPR to hGLP1R cAMP EC50 ratios

Substance | [hGIPR/hGLP1R] EC50 Ratio
Y-Aib-EGT-αMeF(2F)-TSDYSI-αMeL-LD-Orn-K((2-[2-(2-Amino-ethoxy)-ethoxy]-acetyl)2-(γGlu)-CO—(CH2)18—CO2H)AQ-Aib-EFI-(D-Glu)-YLIEGGPSSGAPPPS-NH2 (YXEGTXTSDYSIXLDXKAQXEFIXYLIEGGPSSGAPPPS; Aib, Orn, αMe residues, lipidated Lys, D-Glu, amide; (2)..(2) Xaa at position 2 is Aib; (6)..(6) Xaa at position 6 is alpha-MeF(2F); (13)..(13) Xaa at position 13 is alpha-MeL; (16)..(16) Xaa at position 16 is Orn; MOD_RES (17)..(17) K at position 17 is chemically modified by conjugation of the epsilon-amino group of the K side chain with (2-[2-(2-amino-ethoxy)-ethoxy]-acetyl)2-(gamma-Glu)-CO-(CH2)18- CO2H; (20)..(20) Xaa at position 20 is Aib; (24)) [Peptide 3] | 3.61
Y-Aib-EGT-αMeF(2F)-TSDYSI-αMeL-LDEK((2-[2-(2-Amino-ethoxy)-ethoxy]-acetyl)2-(γGlu)-CO—(CH2)14—CO2H)AQ-Aib-EFI-(D-Glu)-YLIEGGPSSGAPPPS-NH2 (YXEGTXTSDYSIXLDEKAQXEFIXYLIEGGPSSGAPPPS; Aib, αMeF(2F), αMeL, D-Glu; lipidated K; amide; (2)..(2) Xaa at position 2 is Aib; (6)..(6) Xaa at position 6 is alpha-methyl-Phe(2F); (13)..(13) Xaa at position 13 is alpha-methyl-Leu; MOD_RES (17)..(17) Lys at position 17 is chemically modified by conjugation of the epsilon-amino group of the Lys side chain with (2-[2-(2-amino-ethoxy)-ethoxy]-acetyl)2-(gamma-Glu)-CO-(CH2)14- CO2H; (20)..(20) Xaa at position 20 is Aib; (24)..(24) Xaa at positi) [Peptide 208] | 9.08
Y-Aib-EGT-αMeF(2F)-TSDYSI-αMeL-LDEK((2-[2-(2-Amino-ethoxy)-ethoxy]-acetyl)2-(γGlu)-CO—(CH2)16—CO2H)AQ-Aib-EFI-(D-Glu)-YLIEGG-NH2 (YXEGTXTSDYSIXLDEKAQXEFIXYLIEGG; Aib, αMe, D-Glu, C18 diacid lipidation, C-amide; (2)..(2) Xaa at position 2 is Aib; (6)..(6) Xaa at position 6 is alpha-methyl-Phe(2F); (13)..(13) Xaa at position 13 is alpha-methyl-Leu; MOD_RES (17)..(17) Lys at position 17 is chemically modified by conjugation of the epsilon-amino group of the Lys side chain with (2-[2-(2-amino-ethoxy)-ethoxy]-acetyl)2-(gamma-Glu)-CO-(CH2)16- CO2H; (20)..(20) Xaa at position 20 is Aib; (24)..(24) Xaa at positi) [Peptide 220] | 4.63
Y-Aib-EGT-αMeF(2F)-TSDYSI-αMeL-LDEK((2-[2-(2-Amino-ethoxy)-ethoxy]-acetyl)2-(γGlu)-CO—(CH2)16—CO2H)AQ-Aib-EFI-(D-Glu)-YLIEGGPSSG-NH2 (YXEGTXTSDYSIXLDEKAQXEFIXYLIEGGPSSG; Aib, αMe, D-Glu, C18 diacid lipidation, C-amide; (2)..(2) Xaa at position 2 is Aib; (6)..(6) Xaa at position 6 is alpha-methyl-Phe(2F); (13)..(13) Xaa at position 13 is alpha-methyl-Leu; MOD_RES (17)..(17) Lys at position 17 is chemically modified by conjugation of the epsilon-amino group of the Lys side chain with (2-[2-(2-amino-ethoxy)-ethoxy]-acetyl)2-(gamma-Glu)-CO-(CH2)16- CO2H; (20)..(20) Xaa at position 20 is Aib; (24)..(24) Xaa at positi) [Peptide 219] | 5.69
